For orientation: IC50 means the point on the concentration scale where inhibition reaches its midpoint. Low readings indicate greater potency in that assay, high ones weaker potency in that assay.

Data on five molecules can be found in patent publication US6017533.

No end group written: not given here.

In one experiment the target is PACAP receptor in rat brain crude membrane (rat). The experiment in a line: displacement of [^125 I]PACAP 27 from rat brain crude membranes.
M65 (SEQ ID NO: 3) (peptide) came in with an IC50 of 5.96 nM.

Turning to HSDGIFTDSYSRYRKQMAVKKYLAAVL-NH2 (ligand) [PACAP 27 (SEQ ID NO: 5-NH2)], the IC50 is 9.55 nM.

In turn, HSDGIFTDSYSRYRKQMAVKKYLAAVLGKRYKQRVKNK-NH2 (ligand) [PACAP 38 (SEQ ID NO: 4-NH2)] returned an IC50 of 4.45 nM.

Molecule FTDSYSRYRKQMAVKKYLAAVL-NH2 [PACAP 6-27 (SEQ ID NO: 7-NH2)] displayed a 50% inhibitory concentration (IC50) of 1030 nM.

FTDSYSRYRKQMAVKKYLAAVLGKRYKQRVKNK-NH2 [PACAP 6-38 (SEQ ID NO: 6-NH2)] registered an IC50 of 39.1 nM.

A further experiment has the same target. Briefly: displacement of [^125 I]MAX from rat brain crude membranes.
M65 (SEQ ID NO: 3) (peptide) yielded an IC50 of 2.96 nM.

Molecule HSDGIFTDSYSRYRKQMAVKKYLAAVL-NH2 (ligand) [PACAP 27 (SEQ ID NO: 5-NH2)] had an IC50 of 2.16 nM.

Take HSDGIFTDSYSRYRKQMAVKKYLAAVLGKRYKQRVKNK-NH2 (ligand) [PACAP 38 (SEQ ID NO: 4-NH2)]: the IC50 was found to be 1.91 nM. This IC50 and that of the molecule before are within 1.5-fold of each other.

As for FTDSYSRYRKQMAVKKYLAAVL-NH2 [PACAP 6-27 (SEQ ID NO: 7-NH2)], the IC50 stood at 235 nM.

FTDSYSRYRKQMAVKKYLAAVLGKRYKQRVKNK-NH2 [PACAP 6-38 (SEQ ID NO: 6-NH2)] returned an IC50 of 8.35 nM.

A further experiment has the same target. Briefly: displacement of [^125 I]MAX and [^125 I]PACAP 27 from rat brain crude membranes; reference M65.
FTDSYSRYRKQMAVKKYLAAVLGKRYKQRVKNK-NH2 [PACAP 6-38 (SEQ ID NO: 6-NH2)]: the fold of IC50 against M65 lay within 6 to 10 times.
